B1: Disabled homolog 2 (Mus musculus), P98078 (parent)
chain: MSNEVETSTTNGQPDQQAAPKAPSKKEKKKGSEKTDEYLLARFKGDGVKYKAKLIGIDDVPDARGDKMSQDSMMKLKGMAAAGRSQGQHKQRIWVNISLSGIKIIDEKTGVIEHEHPVNKISFIARDVTDNRAFGYVCGGEGQHQFFAIKTGQQAEPLVVDLKDLFQVIYNVKKKEEDKKKVEEANKAEENGSEALMTLDDQANKLKLGVDQMDLFGDMSTPPDLNSPTESKDILLVDLNSEIDTNQNSLRENPFLTNGVTSCSLPRPKPQASFLPENAFSANLNFFPTPNPDPFRDDPFAQPDQSAPSSFDSLTSPDQKKASLSSSSTPQSKGPLNGDTDYFGQQFDQLSNRTGKPEAQGGPWPYPSSQTQQAVRTQNGVSEREQNGFHIKSSPNPFVGSPPKGLSVPNGVKQDLESSVQSSAHDSIAIIPPPQSTKPGRGRRTAKSSANDLLASDIFASEPPGQMSPTGQPAVPQSNFLDLFKGNAPAPVGPLVGLGTVPVTPPQAGPWTPVVYSPSTTVVPGAIISGQPPSFRQPLVFGTTPAVQVWNQSPSFATPASPPPPTVWCPTTSVAPNAWSSTSPLGNPFQSNNIFPPPTMSTQSSPQPMMSSVLATPPQPPPRNGPLKDIPSDAFTGLDPLGDKEVKEVKEMFKDFQLRQPPLVPSRKGETPPSGTSSAFSSYFNNKVGIPQEHVDHDDFDANQLLNKINEPPKPAPRQGVLLGTKSADNSLENPFSKGFSSSNPSVVSQPASSDPHRSPFGNPFA

Variants of: B1
Conditions: with sh3k1_human SH3KBP1, Q96B97
sh3k1_human SH3KBP1, Q96B97, sequence (Q96B97 whole entry): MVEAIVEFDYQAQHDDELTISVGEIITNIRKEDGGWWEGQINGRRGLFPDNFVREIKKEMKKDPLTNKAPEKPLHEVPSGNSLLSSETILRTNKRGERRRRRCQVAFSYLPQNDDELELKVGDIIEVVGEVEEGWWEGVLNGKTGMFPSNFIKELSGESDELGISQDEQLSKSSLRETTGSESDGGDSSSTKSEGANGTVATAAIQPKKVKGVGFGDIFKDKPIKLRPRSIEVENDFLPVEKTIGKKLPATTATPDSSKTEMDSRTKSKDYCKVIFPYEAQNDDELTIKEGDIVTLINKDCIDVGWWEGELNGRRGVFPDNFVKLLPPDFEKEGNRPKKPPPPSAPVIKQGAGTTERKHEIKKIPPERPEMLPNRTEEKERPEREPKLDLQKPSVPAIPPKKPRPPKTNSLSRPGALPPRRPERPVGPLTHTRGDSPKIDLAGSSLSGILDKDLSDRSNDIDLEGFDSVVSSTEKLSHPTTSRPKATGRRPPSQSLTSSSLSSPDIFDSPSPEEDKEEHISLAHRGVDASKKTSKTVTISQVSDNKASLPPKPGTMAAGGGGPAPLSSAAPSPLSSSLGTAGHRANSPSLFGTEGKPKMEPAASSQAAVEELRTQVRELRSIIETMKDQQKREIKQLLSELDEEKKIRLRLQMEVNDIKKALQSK

effect of a mutation on the interaction | Variant
disrupting interaction | R718A

Variants of: B1
Conditions: with sh3k1_human SH3KBP1, Q96B97
Remark: another data set of the same source

effect of a mutation on the interaction | Variant
decreasing interaction | R718A

Reference: IntAct's records for PubMed 14596919
